This series concerns the molecule itself. The series can be described thus: crystal structure; hanging drop vapor diffusion, room temperature, 16% PEG 8000, 100 mM HEPES, 200 mM calcium acetate, 200 μM 5-AU, pH 7.5; two monomers in the asymmetric unit.

B1: Pseudomonas aeruginosa dihydropyrimidinase (enzyme)
chain: MSLLIRGATVVTHEESYRADVLCANGLIQAIGENLETPSGCDVLDGGGQYLMPGGIDPHTHMQLPFMGTVASEDFFSGTAAGLAGGTTSIIDFVIPNPRQSLLEAFHTWRGWAQKSAADYGFHVAITWWSDEVAREMGELVAQHGVNSFKHFMAYKNAIMAADDTLVASFERCLELGAVPTVHAENGELVFHLQQKLLAQGLTGPEAHPLSRPPQVEGEAASRAIRIAETLGTPLYLVHISSREALDEIAYARAKGQPVYGEVLAGHLLLDDSVYRHPDWATAAGYVMSPPFRPVEHQEALWRGLQSGNLHTTATDHCCFCAEQKAMGRDDFSKIPNGTAGIEDRMALLWDAGVNSGRLSMHEFVALTSTNTAKIFNLFPRKGAIRVGADADLVLWDPQGSRTLSAATHHQRVDFNIFEGRTVRGIPSHTISQGKLLWAAGDLRAEPGAGRYVERPAYPSVYEVLGRRAERQRPVAVER
modifications: carbamylated Lys150 (Kcx150)
notes: dihydropyrimidinase of Pseudomonas aeruginosa (PaDHPase), wild type; Binuclear Zn centre (Znα, Znβ) in each monomer; also called PaDHPase; DHPase
On to B1, for which the binding result was “binds”.

Values taken from paper PMC8860565, “Molecular Insights into How the Dimetal Center in Dihydropyrimidinase Can Bind the Thymine Antagonist 5-Aminouracil: A Different Binding Mode from the Anticancer Drug 5-Fluorouracil” (Bioinorganic Chemistry and Applications, 2022).
